# From patent US7901936B2, “Method for stimulating self-renewal of neural stem cells and enhancing neurogenesis” (Albany Medical College, priority 2004, dated 2011)
# System: cortical stem cell clones
# Test: Clonal growth of cortical stem cells with added soluble growth factors (without feeder cells)
# Format: cell-based, mouse
# Details: factor added at 10-50 ng/ml to serum-free medium with FGF2, no feeder cells
# Method: Embryonic cerebral cortices and adult SVZ were dissected and dissociated as described (18-20). Single cells were plated into poly-l-lysine-coated 6-well plates (Costar) at clonal density (2000-4000 cells/well) and cultured in basal serum-free medium consisting of DMEM, B27, N2, NAC and 10 ng/ml FGF2 (19,20). To test the effects of soluble growth factors (PDGF, CNTF, TGFβ, IGF1, IL1, IL6, G-CSF, M-CSF, GM-CSF, LIF, BDNF, Steel factor, VEGF or EGF), each factor was added to serum-free medium with FGF2 at a range of 10-50 ng/ml, and clonal growth (cell number and generation of neurons and glia) was assessed (without co-cultured feeder cells). LIF and VEGF were also tested in combination, each added at 10 ng/ml into serum-free medium, with and without FGF2.
row,Molecule,duplication of the effect of endothelial co-culture on clonal growth
1,"BDNF: soluble growth factor (protein, UniProt P23560 19-247, looked up) Neurotrophic factor BDNF …: APMKEANIRGQGGLAYPGVRTHGTLESVNGPKAGSRGLTSLADTFEHVIEELLDEDQKVRPNEENNKDADLYTSRVMLSSQVPLEPPLLFLLEEYKNYLDAANMSMRVRRHSDPARRGELSVCDSISEWVTAADKKTAVDMSGGTVTVLEKVPVSKGQLKQYFYETKCNPMGYTKEGCRGIDKRHWNSQCRTTQSYVRALTMDSKKRIGWRFIRIDTSCVCTLTIKRGR",none duplicated the result we see from endothelial co-cultures
2,"CNTF: soluble growth factor (protein, UniProt P26441 1-200, looked up) Ciliary neurotrophic factor: MAFTEHSPLTPHRRDLCSRSIWLARKIRSDLTALTESYVKHQGLNKNINLDSADGMPVASTDQWSELTEAERLQENLQAYRTFHVLLARLLEDQQVHFTPTEGDFHQAIHTLLLQVAAFAYQIEELMILLEYKIPRNEADGMPINVGDGGLFEKKLWGLKVLQELSQWTVRSIHDLRFISSHQTGIPARGSHYIANNKKM",none duplicated the result we see from endothelial co-cultures
3,"G-CSF: soluble growth factor (protein, UniProt P09919 31-207, looked up) Granulocyte …: TPLGPASSLPQSFLLKCLEQVRKIQGDGAALQEKLVSECATYKLCHPEELVLLGHSLGIPWAPLSSCPSQALQLAGCLSQLHSGLFLYQGLLQALEGISPELGPTLDTLQLDVADFATTIWQQMEELGMAPALQPTQGAMPAFASAFQRRAGGVLVASHLQSFLEVSYRVLRHLAQP",none duplicated the result we see from endothelial co-cultures
4,"M-CSF: soluble growth factor (protein, UniProt P09603 33-554, looked up) Macrophage colony-stimulating …: EEVSEYCSHMIGSGHLQSLQRLIDSQMETSCQITFEFVDQEQLKDPVCYLKKAFLLVQDIMEDTMRFRDNTPNAIAIVQLQELSLRLKSCFTKDYEEHDKACVRTFYETPLQLLEKVKNVFNETKNLLDKDWNIFSKNCNNSFAECSSQDVVTKPDCNCLYPKAIPSSDPASVSPHQPLAPSMAPVAGLTWEDSEGTEGSSLLPGEQPLHTVDPGSAKQRPPRSTCQSFEPPETPVVKDSTIGGSPQPRPSVGAFNPGMEDILDSAMGTNWVPEEASGEASEIPVPQGTELSPSRPGGGSMQTEPARPSNFLSASSPLPASAKGQQPADVTGTALPRVGPVRPTGQDWNHTPQKTDHPSALLRDPPEPGSPRISSLRPQGLSNPSTLSAQPQLSRSHSSGSVLPLGELEGRRSTRDRRSPAEPEGGPASEGAARPLPRFNSVPLTDTGHERQSEGSFSPQLQESVFHLLVPSVILVLLAVGGLLFYRWRRRSHQEPQRADSPLEQPEGSPLTQDDRQVELPV",none duplicated the result we see from endothelial co-cultures
